# The MegaScale stability set (Tsuboyama et al. 2023)
# B1: r16_88_TrROS_Hall (parent)
# chain: EVIELKIKFKTPEQREKLKEIAKKLNAEVVEEKDGEVIIRFKTPEQAERALKEAEKLGAEVEL
# Variants of: B1
# Assay: folding stability dG (cDNA display proteolysis); higher = more stable
# Conditions: PBS, room temperature
row,Variant,folding stability dG [kcal/mol]
1,V30D,4.27
2,V30K,4.48
3,V30S,4.51
4,A54M,4.44
5,A54G,4.09
6,P44K,4.61
7,P44H,4.75
8,P44D,4.15
9,P44C,4.66
10,P44Y,4.39
11,P44I,4.34
12,Q46N,4.26
13,Q46S,4.47
14,Q46Y,4.17
15,Q46K,4.21
16,G35P,3.8
17,G35M,4.26
18,G35L,4.32
19,G35D,4.1
20,G35I,4.51
21,K42S,4.23
22,K42Q,3.95
23,K42N,4.18
24,K42A,4.1

row,Variant,folding stability dG [kcal/mol]
1,K42C,4.29
2,K42E,3.81
3,K42H,4.1
4,K42R,4.62
5,L57Y,4.28
6,L51T,4.76
7,L51F,4.4
8,L51R,4.61
9,L51V,4.39
10,L51A,4.43
11,L51W,4.25
12,I39L,4.67
13,I39K,1.68
14,I39N,2.82
15,I39C,4.35
16,I39H,3.68
17,I39S,3.19
18,I39E,2.69
19,I39G,3.23
20,I39Q,3.99
21,E60V,4.54
22,E60W,4.01
23,E60Y,4.21
24,E60P,3.44

row,Variant,folding stability dG [kcal/mol]
1,E60D,4.24
2,E60G,3.81
3,E60T,4.4
4,E60R,4.15
5,E16K,4.47
6,E16D,4.24
7,E16A,4.32
8,E16H,4.59
9,V29F,4.23
10,V29A,4.3
11,V29Y,4.55
12,V29K,4.39
13,V29C,4.49
14,V29E,4.47
15,V29D,4.14
16,V29M,4.4
17,V29H,4.53
18,P12W,4.88
19,P12Q,4.3
20,P12D,4.2
21,P12E,4.46
22,P12M,4.53
23,P12S,4.44
24,P12F,4.85

row,Variant,folding stability dG [kcal/mol]
1,T43A,4.45
2,T43S,4.53
3,T43V,4.27
4,T43H,4.57
5,T43R,4.06
6,E20K,4.39
7,E20T,4.5
8,E20V,4.47
9,E20D,4.26
10,E20P,3.68
11,E20H,4.5
12,E20Q,4.22
13,E20R,4.59
14,K8W,4.83
15,K8I,4.12
16,K8M,4.48
17,K8F,4.53
18,K8V,4.34
19,L25A,4.05
20,L25Q,4.42
21,L25M,4.28
22,L25H,4.62
23,L25I,4.46
24,L25G,4.23

row,Variant,folding stability dG [kcal/mol]
1,E45A,4.33
2,E45T,4.61
3,E45V,4.24
4,E45Y,4.73
5,A47P,3.25
6,A47C,4.46
7,E53S,4.21
8,E53W,4.37
9,E53I,4.27
10,E53V,4.36
11,E32K,4.45
12,E32Y,4.65
13,E32H,4.49
14,E32I,4.39
15,E32L,4.31
16,E32T,4.52
17,E32S,4.48
18,E32M,4.33
19,E32F,4.57
20,E32P,4.54
21,L63D,4.33
22,L63T,4.24
23,L63M,4.23
24,L63H,4.59

row,Variant,folding stability dG [kcal/mol]
1,L63F,4.07
2,L63R,4.28
3,L63G,4.38
4,L63C,4.44
5,E13M,4.65
6,E13H,4.41
7,E13R,4.58
8,E13C,4.88
9,E13A,4.33
10,E13W,4.85
11,E13I,4.32
12,K6A,4.22
13,K6R,4.73
14,K6Q,4.17
15,K33A,4.37
16,K33F,4.42
17,K33D,4.26
18,K33Y,4.31
19,K33H,4.45
20,K33C,4.42
21,K33R,4.43
22,K52V,4.2
23,K52W,4.43
24,K52S,4.28

row,Variant,folding stability dG [kcal/mol]
1,K52A,4.52
2,K52E,4.07
3,K52N,4.26
4,E55Q,4.48
5,E55M,4.37
6,E55A,4.43
7,E55W,4.58
8,E55V,4.51
9,E55P,3.67
10,E55R,4.57
11,E55N,4.42
12,K19P,3.37
13,K19Q,4.3
14,K19I,4.31
15,K19R,4.3
16,K19M,4.42
17,R15C,4.31
18,R15Y,4.58
19,R15T,4.16
20,R15V,4.29
21,R15Q,4.22
22,R15D,4.11
23,K17S,4.45
